Results from the Human Domainome abundance scans (Beltran et al. 2025).

B1: Ubiquitin-protein ligase residues 30 to 86; numbered along this chain, Q05086 (parent)
chain: KHLIERYYHQLTEGCGNEACTNEFCASCPTFLRMDNNAAAIKALELYKINAKLCDPH

Variants of: B1
Assay: abundance fitness (aPCA) (normalised: wild type 0, dead -1); higher = more abundant; growth selection in yeast, the domain comes from the species named
Conditions: Homo sapiens

Abundance fitness of substitutions, site by site:
R33: V -0.013, M -0.145, A -0.099, C -0.152, W -0.294, P -0.017, L -0.148, Y -0.19, I -0.1, E -0.011, N -0.109, S -0.041, G 0.014, H -0.109, D -0.245, K 0.033, F -0.415, T -0.025
N37: S -0.072, H -0.075, F -0.542, A 0.018, Q -0.016, C -0.17, M -0.186, D 0.044, T -0.015, P -0.107, R -0.086, W -0.454, K -0.107
K42: V -0.392, N -0.198, T -0.157, I -0.498, E -0.109, F -0.408, Q -0.085, A -0.184, M -0.269, L -0.211, S -0.178, P -0.735, C -0.282, R -0.023, G -0.343, H -0.109, W -0.293
A39: W -0.375, E -0.393, F -0.249, Y -0.239, Q -0.317, D -0.605, N -0.242, G -0.084, H -0.228, L -0.096, M -0.065, V -0.084, T -0.065, K -0.175, R -0.053, I -0.085
M34: A -0.029, E -0.053, V -0.023, I 0.054, P -0.042, Y -0.035, T -0.129, N -0.279, R -0.102, F -0.061, Q -0.074, G -0.117, W -0.183, L -0.002, H -0.095, K -0.23, S -0.042
A38: H -0.19, Q -0.106, D -0.295, W -0.142, V 0.029, I -0.166, M -0.164, P -0.006, T -0.07, Y 0.08, L 0.025, E -0.108, K -0.044, C -0.083, R 0.005, G -0.191, N -0.213
A40: D 0.025, E 0.159, Y -0.192, C 0.067, Q -0.015, I -0.242, T 0.08, F -0.194, K -0.023, P -0.171, L -0.083, S 0.037, N 0.041, G 0.046, W -0.04
E45: G -0.069, D -0.199, K -0.129, M -0.181, A -0.087, F -0.221, H -0.184, C -0.276
L32: S -0.053, N 0.202, V 0.009, A 0.006, Y -0.233, R -0.033, Q 0.043, P 0.148, D -0.049, K 0.081, W -0.193, G -0.034, I -0.036, T 0.098, C -0.082, H -0.093, F -0.239
S27: Q -0.179, V -0.594, E -0.374, T -0.113, M -0.112, A -0.072, Y -0.441, G -0.09, N -0.06, R -0.186, W -0.772, I -0.763, H -0.196, F -0.349, L -0.523, C -0.061, D -0.131, K -0.06, P -0.711
C28: L -0.217, S -0.064, T -0.07, R -0.071, I -0.276, G -0.183, F -0.031, Y -0.06, N -0.006, P -0.475, E -0.144, W -0.16, V -0.151, K -0.038, D -0.171, Q -0.128, A -0.019
P29: I -0.122, Y -0.191, S -0.09, E 0.03, F -0.195, G -0.088, K -0.014, L -0.149, D -0.252, A -0.118, R -0.061, V -0.156, N -0.304, W -0.557, H -0.036, Q -0.103
A26: C -0.053, S -0.047, L -0.143, E -0.332, P -0.876, R -0.096, V -0.156, D -0.67, T -0.328, Y -0.076, Q -0.156, F 0.077, W -0.104, H -0.163, G -0.146, M -0.111, I -0.097, K 0.034
L44: T 0.118, G 0.057, K 0.108, I 0.173, W -0.16, S 0.051, V 0.017, C -0.032, P 0.059, A 0.057, R 0.074, F -0.122, H -0.096, D 0.042, N 0.013, Y 0.131
A43: S 0.027, W -0.989, L -0.826, R -0.717, F -1.06, K -0.242, H -0.987, I -0.92, M -0.321, E -0.894, V -0.221, N -0.768, P -0.467, D -0.856, G -0.156, C -0.098
D35: E -0.026, H -0.213, S -0.022, M -0.058, W -0.308, T -0.112, L -0.091, P -0.135, R -0.095, G -0.039, V -0.187, A -0.067, K -0.199, Y -0.333, F -0.265, Q -0.084, I -0.177, N -0.094, C -0.133
F31: P -0.185, W -0.188, I -0.169, E -0.124, T -0.023, G -0.025, Y -0.06, Q -0.098, C -0.043, R -0.14, V -0.038, H -0.013, N 0.027, M 0.057
T30: C -0.022, M -0.153, D -0.071, V -0.083, W -0.006, Y -0.216, K 0.012, N -0.052, Q -0.048, P -0.097, S 0.016, R 0.044, A 0.018, L -0.083, G 0.025, I -0.042, E -0.055
N36: C -0.019, H -0.152, V -0.03, Y -0.308, R 0.055, W -0.239, E 0.007, M -0.181, T -0.027, Q -0.005, S 0.044, F -0.046, A -0.042, K 0.013, I -0.11, L -0.005, G -0.036
I41: H 0.064, M -0.053, D 0.024, T -0.013, Y -0.123, W -0.239, A 0.012, K 0.08, L -0.072, V 0.01, R 0, G 0.001, S 0.035, C -0.028, E 0.029, Q 0.075, P -0.069
C25: V -0.891, S -0.741, N -0.882, R -1.05, M -0.841, L -1.08, K -1.01, P -1.18, W -1.05, Y -0.816
